Values of other authors as cited in US12150974B2, “Conjugates with inhibitory receptor ligands to induce anergy in insulin-binding B cells” (University of Kansas, priority 2021, dated 2024).

Target: T1, CD20 (Homo sapiens, UniProt P11836)
T1 construct: host or cells: B cells of trial patients (endogenous)
T1 sequence (P11836 1-297): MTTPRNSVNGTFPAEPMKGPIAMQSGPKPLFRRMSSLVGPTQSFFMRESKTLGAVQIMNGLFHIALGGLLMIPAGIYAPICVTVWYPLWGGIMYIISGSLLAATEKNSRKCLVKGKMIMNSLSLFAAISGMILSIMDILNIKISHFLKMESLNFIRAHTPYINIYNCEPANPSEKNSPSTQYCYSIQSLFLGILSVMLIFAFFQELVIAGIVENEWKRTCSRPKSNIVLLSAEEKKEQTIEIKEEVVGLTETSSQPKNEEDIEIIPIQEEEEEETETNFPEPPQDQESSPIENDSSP
Details: at 1 year

Substance: rituximab
- clinical outcome in T1D: beta cell preservation
